The target in one data set is T1, YVAD-AMC (not fully specified).
T1 chain: YVAD

The target of the next data set is T2, truncated Mch4-M134.
T2 chain: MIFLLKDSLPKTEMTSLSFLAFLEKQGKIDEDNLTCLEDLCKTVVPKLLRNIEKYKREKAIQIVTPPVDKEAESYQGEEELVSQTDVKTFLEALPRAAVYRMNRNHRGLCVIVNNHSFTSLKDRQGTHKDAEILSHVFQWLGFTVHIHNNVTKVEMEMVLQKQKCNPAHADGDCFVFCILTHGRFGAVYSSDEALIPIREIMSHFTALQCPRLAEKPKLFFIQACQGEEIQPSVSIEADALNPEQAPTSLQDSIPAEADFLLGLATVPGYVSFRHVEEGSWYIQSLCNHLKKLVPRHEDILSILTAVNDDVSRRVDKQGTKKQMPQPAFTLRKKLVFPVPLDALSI

Another data set has as its target T3, DEVD-AMC (not fully specified).
T3 chain: DEVD

For data set [1], the target named is T4, proMch4 (35S-labeled wild type Mch4).
T4 chain: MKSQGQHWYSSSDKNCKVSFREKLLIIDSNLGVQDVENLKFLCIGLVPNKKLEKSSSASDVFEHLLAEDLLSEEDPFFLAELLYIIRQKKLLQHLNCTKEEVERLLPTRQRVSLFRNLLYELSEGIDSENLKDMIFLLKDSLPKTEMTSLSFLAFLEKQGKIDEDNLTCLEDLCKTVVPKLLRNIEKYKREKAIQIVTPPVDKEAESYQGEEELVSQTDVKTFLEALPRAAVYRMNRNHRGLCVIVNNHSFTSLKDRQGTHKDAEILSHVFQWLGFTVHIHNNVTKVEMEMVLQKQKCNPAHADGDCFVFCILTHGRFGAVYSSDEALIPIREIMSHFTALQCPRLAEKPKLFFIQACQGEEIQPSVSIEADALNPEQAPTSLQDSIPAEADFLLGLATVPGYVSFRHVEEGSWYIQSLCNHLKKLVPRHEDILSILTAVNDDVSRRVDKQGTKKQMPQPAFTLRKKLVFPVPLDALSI

B1: bacterially expressed recombinant Mch4 (GST-Mch4 fusion protein) (protein)
chain: IQIVTPPVDKEAESYQGEEELVSQTDVKTFLEALPRAAVYRMNRNHRGLCVIVNNHSFTSLKDRQGTHKDAEILSHVFQWLGFTVHIHNNVTKVEMEMVLQKQKCNPAHADGDCFVFCILTHGRFGAVYSSDEALIPIREIMSHFTALQCPRLAEKPKLFFIQACQGEEIQPSVSIEADALNPEQAPTSLQDSIPAEADFLLGLATVPGYVSFRHVEEGSWYIQSLCNHLKKLVPRHEDILSILTAVNDDVSRRVDKQGTKKQMPQPAFTLRKKLVFPVPLDALSI
B1: in the data set with YVAD-AMC, the “Km (YVAD-AMC)” value turned out to be 150 µM. Also, in the data set with truncated Mch4-M134, the “cleavage of 35S-labeled proenzyme, SDS-PAGE and autoradiography” value (shortened to “cleavage of 35S-labeled proenzyme”) was “Although Mch4 was able to cleave proMch4, its activity towards its proenzyme was significantly lower than that towards proCPP32 and proMch3 (FIG. 5B, lane 7)”. In the data set with DEVD-AMC, the “Km (DEVD-AMC)” value is 130 µM and the Vmax/Km entry is reported as “Vmax/KmMch4=18”.

B2: Mch2 (protein)
chain: AFYKREMFDPAEKYKMDHRRRGIALIFNHERFFWHLTLPERRGTCADRDNLTRRFSDLGFEVKCFNDLKAEELLLKIHEVSTVSHADADCFVCVFLSHGEGNHIYAYDAKIEIQTLTGLFKGDKCHSLVGKPKIFIIQACRGNQHDVPVIPLDVVDNQTEKLDTNITEVDAASVYTLPAGADFLMCYSVAEGYYSHRETVNGSWYIQDLCEMLGKYGSSLEFTELLTLVNRKVSQRRVDFCKDPSAIGKKQVPCFASMLTKKLHFFPKSN
Regarding B2, in data set [1], the cleavage of proenzyme entry was “none of these enzymes were able to efficiently process proMch4”.

B3: recombinant Mch3 (protein)
chain: AKPDRSSFVPSLFSKKKKNVTMRSIKTTRDRVPTYQYNMNFEKLGKCIIINNKNFDKVTGMGVRNGTDKDAEALFKCFRSLGFDVIVYNDCSCAKMQDLLKKASEEDHTNAACFACILLSHGEENVIYGKDGVTPIKDLTAHFRGDRCKTLLEKPKLFFIQACRGTELDDGIQADSGPINDTDANPRYKIPVEADFLFAYSTVPGYYSWRSPGRGSWFVQALCSILEEHGKDLEIMQILTRVNDRVARHFESQSDDPHFHEKKQIPCVVSMLTKELYFSQ
Turning to B3, the “cleavage of 35S-labeled proenzyme” value in data set [1] was “there was no significant cleavage of proMch4 when incubated with recombinant CPP32 or Mch3 enzymes”.

B4: ICE (protein)
chain: NPAMPTSSGSEGNVKLCSLEEAQRIWKQKSAEIYPIMDKSSRTRLALIICNEEFDSIPRRTGAEVDITGMTMLLQNLGYSVDVKKNLTASDMTTELEAFAHRPEHKTSDSTFLVFMSHGIREGICGKKHSEQVPDILQLNAIFNMLNTKNCPSLKDKPKVIIIQACRGDSPGVVWFKDSVGVSGNLSLPTTEEFEDDAIKKAHIEKDFIAFCSSTPDNVSWRHPTMGSVFIGRLIEHMQEYACSCDVEEIFRKVRFSFEQPDGRAQMPTTERVTLTRCFYLFPGH
With B4, in data set [1], the cleavage of proenzyme entry is reported as “none of these enzymes were able to efficiently process proMch4”.

B5: recombinant CPP32 (protein)
chain: SGISLDNSYKMDYPEMGLCIIINNKNFHKSTGMTSRSGTDVDAANLRETFRNLKYEVRNKNDLTREEIVELMRDVSKEDHSKRSSFVCVLLSHGEEGIIFGTNGPVDLKKITNFFRGDRCRSLTGKPKLFIIQACRGTELDCGIETDSGVDDDMACHKIPVEADFLYAYSTAPGYYSWRNSKDGSWFIQSLCAMLKQYADKLEFMHILTRVNRKVATEFESFSFDATFHAKKQIPCIVSMLTKELYFYH
For the protein B5, the “cleavage of 35S-labeled proenzyme” value in data set [1] is recorded as “there was no significant cleavage of proMch4 when incubated with recombinant CPP32 or Mch3 enzymes”.

B6: TX (protein)
chain: QISPNKKAHPNMEAGPPESGESTDALKLCPHEEFLRLCKERAEEIYPIKERNNRTRLALIICNTEFDHLPPRNGADFDITGMKELLEGLDYSVDVEENLTARDMESALRAFATRPEHKSSDSTFLVLMSHGILEGICGTVHDEKKPDVLLYDTIFQIFNNRNCLSLKDKPKVIIVQACRGANRGELWVRDSPASLEVASSQSSENLEEDAVYKTHVEKDFIAFCSSTPHNVSWRDSTMGSIFITQLITCFQKYSWCCHLEEVFRKVQQSFETPRAKAQMPTIERLSMTRYFYLFPGN
As for B6, in data set [1], the cleavage of proenzyme entry is recorded as “none of these enzymes were able to efficiently process proMch4”.
